B1: clone 2 IgG2 protein (antibody, V domains shown)
VH: EVQLVQSGGGLVQPGGSLRLSCAASGFTFSSYWMSWVRQAPGKGLEWVANIKPDGSEKYYVDSVKGRFTISRDNAKNSVYLQMNSLRAEDTAVYYCARVSRGGSYSDWGQGTLVTVSS
VL: QSVLTQPPSASGSPGQSVTISCTGTSSDVGGYNYVSWYQQHPGKAPKLMIYEVSKRPSGVPDRFSGSKSGNTASLTVSGLQPEDEADYYCSSYAGRNWVFGGGTQLTVL
notes: Human IgG2 (vector pVE414NhuIgG2); light chain constant type matches the variable light chain isotype; also called IgG2 2; IgG22
B2: clone 5 IgG2 protein (antibody, V domains shown)
VH: EVQLVESGGGLVQPGGSLRLSCAASGFTFSSYWMSWVRQAPGKGLEWVANIKPDGSEKYYVDSVKGRFTISRDNAKNSVYLQMNSLRAEDTAVYYCARVSRGGSYSDWGQGTLVTVSS
VL: QSALTQPASVSGSPGQSITISCTGTSSDVGGYIYVSWYQQHPGKAPKLMIYDVSRRPSGISDRFSGSKSGNTASLTISGLQAEDEADYYCNSYTTLSTWLFGGGTKVTVL
notes: Human IgG2; also called IgG2 5; IgG25
B3: clone 7 IgG2 protein (antibody, V domains shown)
VH: EVQLVQSGGGLVQPGGSLRLSCAASGFTFSSYWMSWVRQAPGKGLEWVANIKPDGSEKYYVDSVKGRFTISRDNAKNSVYLQMNSLRAEDTAVYYCARVSRGGSYSDWGKGTLVTVSS
VL: QSALTQPASVSGSPGQSIIISCTGTRSDIGGYNYVSWYQHHPGRAPKLIIFDVNNRPSGVSHRFSGSKSGNTASLTISGLQAEDEADYYCNSFTDSRTWLFGGGTKLTVL
notes: Human IgG2; also called IgG2 7
B4: clone 30 IgG2 protein (antibody, V domains shown)
VH: QVQLQESGPGLVKPSQTLSLTCAISGDSVSSNSAAWNWIRQSPSRGLEWLGRTYYRSKWYNDYAVSVKSRMTIKADTSKNQFSLQLNSVTPEDTAVYYCARDEGPLDYWGQGTLVTVSA
VL: QAVLTQPSSVSGAPGQRVTISCTGSSSNLGTGYDVHWYQQLPGTAPKLLIYGNSNRPSGVPDRFSGSKSDTSGLLAITGLQAEDEATYYCQSYDFSLSAMVFGGGTKVTVL
notes: Human IgG2; also called IgG2 30
B5: clone 10 IgG2 protein (antibody, V domains shown)
VH: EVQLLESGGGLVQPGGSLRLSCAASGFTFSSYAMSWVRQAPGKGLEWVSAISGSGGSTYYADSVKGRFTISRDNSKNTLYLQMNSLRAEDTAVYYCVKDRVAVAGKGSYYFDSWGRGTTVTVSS
VL: QSVLTQPPSVSEAPGQRVTIACSGSSSNIGNNAVSWYQQLPGKAPTLLIYYDNLLPSGVSDRFSGSKSGTSASLAISGLQSEDEADYYCAAWDDSLNDWVFGGGTKVTVL
notes: Human IgG2; also called IgG2 10

Each binder was assayed against T1, mouse EpoR-Fc protein (muEpoR-Fc) (mouse, UniProt P14753 25-249) (assay: ELISA: antibody coated at 1 µg/ml, biotinylated muEpoR-Fc at 5 µg/ml, streptavidin-HRP, ABTS).
T1 construct: Biotinylated in the assay; also called biotinylated muEpoR-Fc; not shown: Fc part not described
T1 sequence (looked up): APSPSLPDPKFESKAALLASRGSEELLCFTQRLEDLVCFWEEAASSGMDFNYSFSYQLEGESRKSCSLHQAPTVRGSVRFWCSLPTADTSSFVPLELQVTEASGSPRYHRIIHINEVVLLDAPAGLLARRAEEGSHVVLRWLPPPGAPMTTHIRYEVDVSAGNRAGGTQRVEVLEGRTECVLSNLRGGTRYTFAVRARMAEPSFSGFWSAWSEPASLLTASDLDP

| Binder | binding result |
| --- | --- |
| B1 | binds |
| B2 | binds |
| B3 | binds |
| B4 | binds |
| B5 | binds |

From patent publication US20080124340A1 (published 2008)
